Measured values published in US6221608A, “Methods for identifying erythropoietin receptor binding protein” (Ortho Pharmaceutical Corporation, priority 1997, dated 2001).
Read-outs that look alike come from different tables or passages of the source. Bridge positions count the residues as written; N and C are the ends. Square brackets hold non-standard residues; d marks the D form. Ends that are not written are not given here. Peptide text beside a SMILES is read from it. Tyr(3,5-Br2) = N[C@@H](Cc1cc(Br)c(O)c(Br)c1)C(=O)O

Legend:
EBP [1] = molecular target: T1, EBP (Homo sapiens, UniProt P19235); assay: EBP bead competitive binding assay vs [125I]EPO; settings: for competition in EBP-bead binding assay: result in words
T1 construct: one encoding amino acids 1-225 of the extracellular domain of the mature hEPOR; made in house; host or cells: E. coli BL21(DE3)pLysS (plasmid pSAM3)
T1 sequence (P19235 25-249): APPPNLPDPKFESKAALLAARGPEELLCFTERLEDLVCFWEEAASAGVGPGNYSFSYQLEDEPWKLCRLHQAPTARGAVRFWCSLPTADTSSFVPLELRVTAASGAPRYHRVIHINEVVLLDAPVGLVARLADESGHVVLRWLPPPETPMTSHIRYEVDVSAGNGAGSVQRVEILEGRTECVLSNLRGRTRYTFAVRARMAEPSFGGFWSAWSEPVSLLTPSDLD
From the text: EBP as produced by the above method contains one free sulfhydryl group which can be modified without affecting the solution phase binding of ligand. In order to immobilize the EBP for equilibrium binding analysis this observation was extended for the covalent attachment of EBP to agarose beads. The iodoacetyl activation chemistry of Sulfolink beads (Pierce Chemical Co, Rockford, Ill.) is specific for free thiols and assures that the linkage is not easily reversible. EBP-Sulfolink beads were made as follows: Sulfolink gel suspension (10 ml) was mixed with coupling buffer (40 ml: 50 mM TRIS, pH 8.3, 5 mM EDTA) and the gel was allowed to settle. The supernatant was removed and the EBP (0.3-1 mg/ml in coupling buffer) to be bound was added directly to the washed beads. The mixture was rocked gently for 30 minutes at room temperature, and the beads were allowed to settle for 1 hour at room temperature. The supernatant was removed and saved, and the beads were washed twice with 20 ml of coupling buffer. The washes were retained as well. The beads were then treated with 20 ml of 0.05 M cysteine for 30 minutes at room temperature to block unbound sites. Finally, the beads were washed with 50 ml of 1 M NaCl, then with 30 ml of PBS, and resuspended in 20 ml of PBS and stored at 4° C. The amount of EBP which was covalently bound to the beads was determined by comparing the OD280 of the original EBP solution to the total OD280 recovered in the reaction supernatant and the two 20 ml washes. Typically, 40-60% of the applied EBP remains associated with the beads.
Competitive binding assays of peptides were performed as described herein. Individual peptides were dissolved in DMSO to prepare a stock solution of 1 mM. […] Initial assay points with no added peptide were included in each assay to determine total binding. Binding mixtures were incubated overnight at room temperature with gentle rocking. The beads were then collected using Micro-columns (Isolab, Inc.) and washed with 3 mL of wash buffer (PBS/5% BSA). The columns containing the washed beads were placed in 12×75 mm glass tubes and bound radioactivity levels determined in a gamma counter.

EBP-Ig [2] = molecular target: T2, EBP-Ig (Homo sapiens, UniProt P19235); assay: EBP-Ig Flash Plate EPO radioligand binding assay; settings: for IC50: read-out: EBP-Ig Binding IC 50; for competition in EBP-Ig binding assay: result in words
T2 construct: one encoding amino acids 1-225 of the extracellular domain of the mature hEPOR; made in house
From the text: The interaction of biotin and strepavidin is frequently employed to capture and effectively immobilize reagents useful in assay protocols and has been employed here as a simple method to capture and immobilize EBP-Ig. EBP-Ig is initially randomly modified with an amine reactive derivative of biotin to produce biotinylated-EBP-Ig. Use of strepavidin coated plates allows the capture of the biotinylated EBP-Ig on the surface of a scintillant impregnated coated well (Flash plates, NEN-DuPont). […] The amount of light produced was quantified to estimate the amount of ligand binding. The specific assay format was suitable for the multi-well plate capacity of a Packard TopCount Microplate Scintillation counter.
Biotinylated EBP-Ig (3S mutant) was prepared as follows. EBP-Ig (3 ml, OD280 2.9) was exchanged into 50 mM sodium bicarbonate, pH 8.5 using a Centriprep 10 ultrafiltration device. […] 10 μl of a 4 mg/ml solution of NHS-LC-Biotin (Pierce) was added and the reaction mixture placed on ice in the dark for two hours. Unreacted biotin was removed by exchange of the reaction buffer into PBS in a Centriprep 10 device and the protein reagent aliquoted and stored at […].
All wells were adjusted to a final DMSO concentration of 5%. […] After all additions were made, the plate was covered with an adhesive top seal and placed in the dark at room temperature overnight. The next day all liquid was aspirated from the wells to limit analyte dependent quench of the signal, and the plates were counted on a Packard TOPCOUNT Microplate Scintillation Counter. […] Corrected total binding (CTB) was calculated as: TB-NSB=CTB. The concentration of test peptide which reduced CTB to 50% was reported as the IC50.

EBP-Ig [3] = molecular target: T2, EBP-Ig; assay: Fluorescence polarization competitive binding assay with fluorescein-RWJ 61718; settings: for competition in FP/EBP-Ig assay: fluorescein-RWJ 61718 as labelled ligand, result in words; for IC50: read-out: FP/EBP-Ig IC50
Protocol: Fluorescence polarization (FP) is a useful technique capable of providing information on changes in molecular volume which occur upon the association or dissociation of two molecules. […] Conversely, if a non-fluorescent competitor molecule is added to this complex then a decrease in the fluorescence polarization value can be anticipated [Checovich, W. J., Bolger, R. E. & Burke, T. Fluorescence polarization-a new tool for cell and molecular biology, Nature 375, 254-256 (1995)]. RWJ 61718 was labeled with a fluorescein reporter group by treating 10 mg of peptide solubilized in 3 ml of PBS with 17.9 mg of fluorescein isothiocyanate dissolved in 1 ml DMSO (added in 100 μl aliquots). RWJ 61718 contained a single amine (N-terminus) and 1:1 label incorporation was expected. This mixture was placed on ice and the solution cleared by the addition of 1.0 ml of DMSO. Following a 34 hour incubation at 4° C., fluorescein labeled RWJ 61718 was isolated by reverse phase HPLC. The entire reaction mixture was diluted 1:2 with 0.1% trifluoroacetic acid (TFA; mobile phase A), pumped onto a C-18 reversed phase preparative column (Vydac #218tp54) at 8 ml/min and eluted with a 90 minute linear gradient of 0-100% mobile phase B (acetonitrile containing 0.7% TFA). Fractions containing fluorescent products (excitation wavelength 488 nm, emission wavelength 530 nm) at 530 nm were collected and lyophilized. A highly fluorescent peak eluting at near 60 minutes (ca 60% mobile phase B) was determined to be the desired product by monitoring FP changes in the presence of EBP-Ig.
A competitive FP assay using fluorescein labeled RWJ 61718 as the receptor ligand was established as follows using a Fluorescence Polarization Microtiter System (Jolley Consulting). Test peptides at variable concentrations and EBP-Ig (3S mutant, 0.025 mg/ml) were incubated for 1 hour at room temperature in 90 μl PBS and dispensed into a Dynatech Microfluor plate 96 well plate. Fluorescein-RWJ 61718 was added to each well (10 μl in 0.1% TFA) to a final concentration of 2.5 μM followed by an additional 1 hr incubation at room temperate in the dark. Values for milliPolarization (mP) were obtained at an instrument voltage setting of 8.0. Baseline peptide values were determined from wells which contained only labeled peptide and PBS. Total mP readings were determined in test wells which contained labeled peptide and EBP-Ig only. Peptide concentration dependent competitive reduction in mP values were determined and an IC50 value calculated.

EBP [4] = molecular target: T1, EBP; assay: DPDPB crosslinking: dimerization of EBP by EPO mimetic peptides (SDS-PAGE); assay type: biochemical; settings: 22 μM EBP, 1.1 mM DPDPB, 400 μM peptide, visual detection of dimer product
Protocol: Peptide-mediated receptor dimerization was stabilized for study using the non-water soluble homobifunctional sulfhydryl reactive cross linking reagent DPDPB (1,4-di-[2'-pyridyldithio)propionamido]butane, Pierce Chemical Co., Rockford, Ill.). EBP (22 μM) was incubated in the presence or absence of DPDPB (1.1 mM), 400 μM peptide ligand, 75 μl of PBS, pH 7.5 with all reactions and controls containing a final concentration of 4.4% DMSO and 0.007% TFA. These samples were incubated for 4 hours at room temperature and stored at 4° C. for 12 hours before analysis under reducing and non-reducing conditions by SDS-PAGE (10-20% gradient gels, Integrated Separations Systems, Natick, Mass.).

FDC-P1/hER cells = assay: EPO dependent cell proliferation assay; assay type: cell-based, human EPO receptor; settings: for FDCP-P1-hER ED50 / EC50: amount of peptide for one half of maximal activity of recombinant EPO, 42 h + 6 h [3H]thymidine; for EPO mimetic activity / proliferative capacity: cell proliferation, result in words; for EC50: 2880 min, read-out: FDCP-P1-hER ED50
Protocol: At 24 hours, the cells were counted, resuspended at 800,000 cells/ml and dispensed at 40,000 cells/well. Stock solutions of the respective peptides (10 mM in DMSO) were prepared and dispensed in triplicate to final concentrations of 1×10^-10 M through 1×10^-5 M and adjusted to a final volume of 0.2 ml. […] A standard EPO dose response curve was generated with each assay series. After a 42 hours incubation at 37° C. (about 2 cell doublings) 1 μCi/well of [^3 H] thymidine was added and the incubation continued for 6 hours at which time the cells were harvested and counted to assess [^3 H] thymidine incorporation as a measure of cell proliferation.

[5] = EBP-Ig (3S mutant) 0.025 mg/ml, fluorescein-RWJ 61718 2.5 μM
[6] = 0.5 nM [125I]EPO, 2.5% DMSO, overnight, room temperature
[7] = 0.5 nM [125I]EPO, 1 μg/ml biotinylated EBP-Ig (3S mutant), 5% DMSO, overnight

T2 sequence (P19235 with tags, fused parts or gaps limits assumed): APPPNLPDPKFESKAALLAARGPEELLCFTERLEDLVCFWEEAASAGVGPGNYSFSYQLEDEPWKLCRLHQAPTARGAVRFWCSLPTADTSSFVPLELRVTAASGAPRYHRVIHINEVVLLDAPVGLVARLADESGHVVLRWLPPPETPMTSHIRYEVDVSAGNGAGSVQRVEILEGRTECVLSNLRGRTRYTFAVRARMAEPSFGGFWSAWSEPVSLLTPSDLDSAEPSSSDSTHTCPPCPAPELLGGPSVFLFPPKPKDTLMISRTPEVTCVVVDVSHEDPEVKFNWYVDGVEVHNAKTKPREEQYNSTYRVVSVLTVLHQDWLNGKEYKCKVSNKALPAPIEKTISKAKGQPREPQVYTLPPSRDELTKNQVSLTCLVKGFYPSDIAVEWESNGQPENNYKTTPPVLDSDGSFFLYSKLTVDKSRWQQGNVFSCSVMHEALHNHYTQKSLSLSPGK

Compound	IC50 (EBP [1]) [µM]	IC50 (EBP-Ig [2]) [µM]	FP/EBP-Ig IC50 (EBP-Ig [3]; [5])	competition in FP/EBP-Ig assay (EBP-Ig [3])	DPDPB cross-linking (EBP [4])	DPDPB cross-linking (EBP [4]; listed as 61177)	FDCP-P1-hER ED50 (FDC-P1/hER cells)	EPO mimetic activity / proliferative capacity (FDC-P1/hER cells)	IC50 (EBP-Ig [3]; [5]) [µM]	IC50 (EBP [1]; [6]) [µM]	IC50 (EBP-Ig [2]; [7]) [µM]	EC50 (FDC-P1/hER cells) [µM]	competition in EBP-bead binding assay (EBP [1])	competition in EBP-Ig binding assay (EBP-Ig [2])
CC(C)C[C@@H]1NC(=O)[C@@H]2CCCN2C(=O)CNC(=O)[C@H](Cc2ccccc2)NC(=O)[C@H](Cc2c[nH]cn2)NC(=O)[C@@H](NC(=O)[C@@H](N)CO)CSSC[C@@H](C(=O)N[C@@H](CCCCN)C(N)=O)NC(=O)[C@H](C(C)C)NC(=O)[C@H](Cc2c[nH]c3ccccc23)NC(=O)[C@H]([C@@H](C)O)NC1=O [RWJ 61177] (H-SCHFGPLTWVCK-NH2; disulfide 2-11)	90	500												
CC(C)C[C@@H]1NC(=O)[C@@H]2CCCN2C(=O)CNC(=O)[C@H](Cc2ccccc2)NC(=O)[C@H](Cc2cnc[nH]2)NC(=O)[C@@H](NC(=O)[C@@H](N)CO)CSSC[C@@H](C(=O)N[C@@H](CCCCN)C(N)=O)NC(=O)[C@H](C(C)C)NC(=O)[C@H](Cc2c[nH]c3ccccc23)NC(=O)[C@H]([C@@H](C)O)NC1=O [RWJ 61177] (H-SCHFGPLTWVCK-NH2; disulfide 2-11)			Inactive	inactive	deficient in crosslinking ability	negative	Inactive	without proliferative capacity						
GGLYACHMGPMTWVCQPLRG (GGKYACHMGPMTWVCQPKRG) [RWJ 61718]					positive			with proliferative capacity	0.35	3	0.1	0.1		
GGTXSCHFGPLTWVCKPQGG (GGT[Tyr(3,5-Br2)]SCHFGPLTWVCKPQGG-NH2; disulfide 6-15 (inferred)) [RWJ 62021, X = 3,5-dibromo-tyr]				very efficient competitors	some crosslinking potential		Inactive	without proliferative potential	5	150	400		very poorly	very poorly
GGTYSCHFGPLTWVCKPQ [RWJ 61596]										8		0.08		
GGTYSCHFGPLTWVCKPQGG [RWJ 61233]				positive	positive			functions as an EPO mimetic	0.5	5	1	0.1	competes at similar levels in both the EBP-bead and EBP-Ig binding assays	competes at similar levels in both the EBP-bead and EBP-Ig binding assays
YSCHFGPLTWVCK (YSCHFGPLYWVCK) [RWJ 61279]					positive			with proliferative capacity		70		8		
